The test addresses T1, integrin-linked kinase (ILK) ankyrin repeat domain (ARD) (UniProt Q13418 1-171).
T1 sequence: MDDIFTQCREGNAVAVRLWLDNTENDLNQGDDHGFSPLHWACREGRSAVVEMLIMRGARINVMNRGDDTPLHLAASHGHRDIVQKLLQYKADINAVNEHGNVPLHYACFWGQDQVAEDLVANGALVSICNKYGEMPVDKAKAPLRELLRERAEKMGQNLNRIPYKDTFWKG
Put plainly: ITC. Background: Isothermal titration calorimetry measures the heat released or taken up as one component is titrated into another.

Consider one molecule from article PMC2873192 (Journal of the American Chemical Society, 2009).

B1: PINCH LIM1 domain (domain or fragment)
chain: MANALASATCERCKGGFAPAEKIVNSNGELYHEQCFVCAQCFQQFPEGLFYEFEGRKYCEHDFQMLFAPC
As a reminder, the Kd is the free concentration of one partner at which half of the binding sites on the other are occupied at equilibrium, for simple one-to-one binding. In turn, B1 gave a Kd of roughly 68 nM.
